Source: patent US20250034269A1 (Hoffmann-La Roche, published 2025)

Assays:
[1] = molecular target: T1, monomeric murine LTBR ECD (S28-L223) Fc fusion avi biotinylated (P1AE4410) (mouse, UniProt P0DOX5 223-449 = IgG part, biotinylated avi tag); assay: SPR avidity set-up, LTBR on SA chip
T1 construct: also called mu LTBR

[2] = molecular target: murine FAP-Avi-His biotinylated (P1AD9907) (mouse, UniProt P97321 27-761, biotinylated avi tag); assay: SPR affinity set-up, antibody captured
[3] = molecular target: T1, monomeric murine LTBR ECD (S28-L223) Fc …; assay: SPR affinity set-up, antibody captured
[4] = molecular target: T1, monomeric murine LTBR ECD (S28-L223) Fc …; assay: SPR
[5] = molecular target: T2, human LTBR ECD (S28-M227) N- and C-terminally extended-Fc-fusion wt kih HRYF-Avi-His biotinylated (P1AE7979) (human, UniProt P0DOX5 223-449 = IgG part, biotinylated avi tag); assay: SPR, IgG captured
T2 construct: also called hu LTBR

[6] = molecular target: T3, monomeric cynomolgus LTBR ECD (S28-M227) Fc fusion avi biotinylated (P1AE4411) (cynomolgus, UniProt P0DOX5 223-449 = IgG part, biotinylated avi tag); assay: SPR, IgG captured
T3 construct: also called cyno LTBR

B1: P1AF4664 (bispecific antibody, mouse IgG1, kappa)
heavy 1: EVQLLESGGGLVQPGGSLRLSCAASGFTFSYYAMTWVRQAPGKGLEWIGVINSGGGTYYTDSVKGRFTMSRDNSKNTLYLQVNSLRAEDTAVYYCAKASTADVWGQGTTVTVSSAKTTPPSVYPLAPGSAAQTNSMVTLGCLVEGYFPEPVTVTWNSGSLSSGVHTFPAVLQSDLYTLSSSVTVPSSTWPSQTVTCNVAHPASSTKVDEKIVPRDCGCKPCICTVPEVSSVFIFPPKPKDVLTITLTPKVTCVVVAISKDDPEVQFSWFVDDVEVHTAQTKPREEQINSTFRSVSELPIMHQDWLNGKEFKCRVNSAAFGAPIEKTISKTKGRPKAPQVYTIPPPKKQMAKDKVSLTCMITNFFPEDITVEWQWNGQPAENYKNTQPIMKTDGSYFVYSKLNVQKSNWEAGNTFTCSVLHEGLHNHHTEKSLSHSPG
light 1: DIQMTQSPSSLSASVGDRVTITCQASQGISNYLSWYQQKPGKAPKRLIFAASSLESGVPSRFSGSGSGTDFTLTISSLQPEDFATYYCQQYNSYSLTFGGGTKLEIKRADAAPTVSIFPPSSRKLTSGGASVVCFLNNFYPKDINVKWKIDGSERQNGVLNSWTDQDSKDSTYSMSSTLTLTKDEYERHNSYTCEATHKTSTSPIVKSFNRNEC
heavy 2: EIVLTQSPGTLSLSPGERATLSCRASQSVSRSYLAWYQQKPGQAPRLLIIGASTRATGIPDRFSGSGSGTDFTLTISRLEPEDFAVYYCQQGQVIPPTFGQGTKVEIKSSAKTTPPSVYPLAPGSAAQTNSMVTLGCLVKGYFPEPVTVTWNSGSLSSGVHTFPAVLQSDLYTLSSSVTVPSSTWPSQTVTCNVAHPASSTKVDKKIVPRDCGCKPCICTVPEVSSVFIFPPKPKDVLTITLTPKVTCVVVAISKDDPEVQFSWFVDDVEVHTAQTKPREEQINSTFRSVSELPIMHQDWLNGKEFKCRVNSAAFGAPIEKTISKTKGRPKAPQVYTIPPPKEQMAKDKVSLTCMITNFFPEDITVEWQWNGQPAENYDNTQPIMDTDGSYFVYSDLNVQKSNWEAGNTFTCSVLHEGLHNHHTEKSLSHSPG
light 2: EVQLLESGGGLVQPGGSLRLSCAASGFTFSSHAMSWVRQAPGKGLEWVSAIWASGEQYYADSVKGRFTISRDNSKNTLYLQMNSLRAEDTAVYYCAKGWLGNFDYWGQGTLVTVSSRADAAPTVSIFPPSSEQLTSGGASVVCFLNNFYPKDINVKWKIDGSERQNGVLNSWTDQDSKDSTYSMSSTLTLTKDEYERHNSYTCEATHKTSTSPIVKSFNRNEC
notes: 1+1 anti-LTBR (0080)/anti-FAP (28H1) murine IgG1 DA PG crossMab; also called murine 1+1 surrogate
t1/2 [1]: 0.75 min
Kd [2]: < 0.1 nM
Kd [3]: 13 nM
t1/2 [3]: 1.25 min

B2: P1AF4674 (bispecific antibody, mouse IgG1, kappa)
heavy 1: EVQLLESGGGLVQPGGSLRLSCAASGFTFSYYAMTWVRQAPGKGLEWIGVINSGGGTYYTDSVKGRFTMSRDNSKNTLYLQVNSLRAEDTAVYYCAKASTADVWGQGTTVTVSSAKTTPPSVYPLAPGSAAQTNSMVTLGCLVEGYFPEPVTVTWNSGSLSSGVHTFPAVLQSDLYTLSSSVTVPSSTWPSQTVTCNVAHPASSTKVDEKIVPRDCGCKPCICTVPEVSSVFIFPPKPKDVLTITLTPKVTCVVVAISKDDPEVQFSWFVDDVEVHTAQTKPREEQINSTFRSVSELPIMHQDWLNGKEFKCRVNSAAFGAPIEKTISKTKGRPKAPQVYTIPPPKKQMAKDKVSLTCMITNFFPEDITVEWQWNGQPAENYKNTQPIMKTDGSYFVYSKLNVQKSNWEAGNTFTCSVLHEGLHNHHTEKSLSHSPGGGGGSGGGGSGGGGSGGGGSEVQLLESGGGLVQPGGSLRLSCAASGFTFSSHAMSWVRQAPGKGLEWVSAIWASGEQYYADSVKGRFTISRDNSKNTLYLQMNSLRAEDTAVYYCAKGWLGNFDYWGQGTLVTVSSRADAAPTVSIFPPSSEQLTSGGASVVCFLNNFYPKDINVKWKIDGSERQNGVLNSWTDQDSKDSTYSMSSTLTLTKDEYERHNSYTCEATHKTSTSPIVKSFNRNEC
light 1: DIQMTQSPSSLSASVGDRVTITCQASQGISNYLSWYQQKPGKAPKRLIFAASSLESGVPSRFSGSGSGTDFTLTISSLQPEDFATYYCQQYNSYSLTFGGGTKLEIKRADAAPTVSIFPPSSRKLTSGGASVVCFLNNFYPKDINVKWKIDGSERQNGVLNSWTDQDSKDSTYSMSSTLTLTKDEYERHNSYTCEATHKTSTSPIVKSFNRNEC
heavy 2: EVQLLESGGGLVQPGGSLRLSCAASGFTFSYYAMTWVRQAPGKGLEWIGVINSGGGTYYTDSVKGRFTMSRDNSKNTLYLQVNSLRAEDTAVYYCAKASTADVWGQGTTVTVSSAKTTPPSVYPLAPGSAAQTNSMVTLGCLVEGYFPEPVTVTWNSGSLSSGVHTFPAVLQSDLYTLSSSVTVPSSTWPSQTVTCNVAHPASSTKVDEKIVPRDCGCKPCICTVPEVSSVFIFPPKPKDVLTITLTPKVTCVVVAISKDDPEVQFSWFVDDVEVHTAQTKPREEQINSTFRSVSELPIMHQDWLNGKEFKCRVNSAAFGAPIEKTISKTKGRPKAPQVYTIPPPKEQMAKDKVSLTCMITNFFPEDITVEWQWNGQPAENYDNTQPIMDTDGSYFVYSDLNVQKSNWEAGNTFTCSVLHEGLHNHHTEKSLSHSPG
light 2: EIVLTQSPGTLSLSPGERATLSCRASQSVSRSYLAWYQQKPGQAPRLLIIGASTRATGIPDRFSGSGSGTDFTLTISRLEPEDFAVYYCQQGQVIPPTFGQGTKVEIKSSAKTTPPSVYPLAPGSAAQTNSMVTLGCLVKGYFPEPVTVTWNSGSLSSGVHTFPAVLQSDLYTLSSSVTVPSSTWPSQTVTCNVAHPASSTKVDKKIVPRDC
notes: 2+1 anti-LTBR (0080)/anti-FAP (28H1) murine IgG1 DA PG crossMab; also called murine 2+1 surrogate
t1/2 [1]: 6.88 min
Kd [2]: < 0.1 nM
Kd [3]: 13 nM
t1/2 [3]: 1.18 min

B3: P1AH0119 (BHA10) (antibody, human IgG1, kappa, L234A L235A, V domains shown)
VH: QVQLVQSGAEVKKPGSSVKVSCKASGYTFTTYYLHWVRQAPGQGLEWMGWIYPGNVHAQYNEKFKGRVTITADKSTSTAYMELSSLRSEDTAVYYCARSWEGFPYWGQGTTVTVSS
VL: DIQMTQSPSSLSASVGDRVTITCKASQNVGINVAWYQQKPGKAPKSLISSASYRYSGVPSRFSGSGSGTDFTLTISSLQPEDFATYFCQQYDTYPFTFGQGTKVEIKR
binding result [4]: no binding (tested: 300 nM)
Kd [5]: 0.5 nM
T1/2 [5]: 14 min
koff [5]: 0.000853 s⁻¹
kon [5]: 1.72e+06 M⁻¹ s⁻¹
Kd [6]: 1.18 nM
T1/2 [6]: 8 min
koff [6]: 0.00154 s⁻¹
kon [6]: 1.31e+06 M⁻¹ s⁻¹
